Source: the supplement of paper PMC9170038

Tested on: MS2 coat protein
Assay: apparent KD of MS2 coat protein; designed switch direction (-1 OFF switch, 1 ON switch): 1; higher = weaker reporter binding
Outline: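 Designed RNA switches with common flanks were made on Illumina chips by stalled E. coli RNA polymerase. Titration with SNAP-549-labelled MS2 coat protein doubled from 0.7 or 1.5 nM up to 3 µM. Apparent KD is each design's median over clusters after curve-fitting normalised fluorescence.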

[1] = input ligand: microRNA oligo, concentration not stated
[2] = Eterna round: R95, input ligand: FMN 200 uM
[3] = Eterna round: R95, input ligand: microRNA oligo, concentration not stated
[4] = Eterna round: R95, input ligand: none

## GCUCGGAUGAUGGCCCACAUGAGGAUCACCCAUGUGCGUGGGCAGGAUAUCUAGAUUAAGGAUGUAGAGAAGGGCCUACCGAGC [SameState NG3 #33] (Eterna round: R96, puzzle: Same State NG 3)
Input ligand: FMN 200 uM
  apparent KD of MS2 coat protein: 543 nM
[1]
  apparent KD of MS2 coat protein: 140 nM
Input ligand: none
  apparent KD of MS2 coat protein: 179 nM

## UUUAGUUGCGCGCAGGAUAUGUAUUAAUAUACAUGAGGAUCACCCAUGUGAGAUCGAAUAGAUCUGCAGAAGGGCGAAUCGCGAC [Laonerce - 27] (puzzle: Same State 2)
[2]
  apparent KD of MS2 coat protein: 52.7 nM
[3]
  apparent KD of MS2 coat protein: 361 nM
[4]
  apparent KD of MS2 coat protein: 772 nM

## AGGCUCAGAGCAGGAUAUAUGUAAUAACAUGAGGAUCACCCAUGUGUCGAGCUUCGGCUCGACACAUAGAAGGGCUCUGAGCCA [SSNG2/2-B1] (Eterna round: R96, puzzle: Same State NG 2)
Input ligand: FMN 200 uM
  apparent KD of MS2 coat protein: 16.9 nM
[1]
  apparent KD of MS2 coat protein: 28.8 nM
Input ligand: none
  apparent KD of MS2 coat protein: 45.9 nM

## UUAAAACAUGAGGAUCACCCAUGUCAACAAAGUCGAGGAUAUGGGCAAUUAUUAUUAGAACCAGAAGGCGAAUAUU [Mat - Same State 1 - Mod of UCT - D28] (puzzle: Same State 1)
[2]
  apparent KD of MS2 coat protein: 27.1 nM
[3]
  apparent KD of MS2 coat protein: 260 nM
[4]
  apparent KD of MS2 coat protein: 289 nM

## UAUUUAAUCAUAGGAUAUAGUGUGUAAUUUGGACUAGAAGGAUGAAACAUGAGGAUCACCCAUGUGGUAAAUGGGAUACAUUCC [JR_SSNG1_Sub100] (Eterna round: R96, puzzle: Same State NG 1)
[1]
  apparent KD of MS2 coat protein: 59.8 nM

## UUAAUAAUGUAAGGAUAUACAUGAGGAUUUCUCGUAGAAGGUACAGGACAUGAGGAUCACCCAUGUAUCGCUCAGAAGAGCGUA [Mat - Same State NG 1 - JL mod - D24] (Eterna round: R96, puzzle: Same State NG 1)
Input ligand: FMN 200 uM
  apparent KD of MS2 coat protein: 1400 nM
[1]
  apparent KD of MS2 coat protein: 715 nM
Input ligand: none
  apparent KD of MS2 coat protein: 1750 nM

## UAGUGAUUGCAAGGAUAUGCUAGUUUUUAUUUGUGUUUGAUAACAAACAUGAGGAUCACCCAUGUGCAGAAGGUGCAAGAUAUG [JR_SSNG2_Sub078] (Eterna round: R96, puzzle: Same State NG 2)
Input ligand: FMN 200 uM
  apparent KD of MS2 coat protein: 193 nM
[1]
  apparent KD of MS2 coat protein: 361 nM
Input ligand: none
  apparent KD of MS2 coat protein: 647 nM

## UGUUGUAUUACAGGAUAUCUAUUAGUUUUAUUUAGAGAAGGGUAUUCACAUGAGGAUCACCCAUGUAUAUACGAGGAAGUUGUG [JMF's solution 14] (Eterna round: R96, puzzle: Same State NG 1)
[1]
  apparent KD of MS2 coat protein: 42.2 nM

## UACAAUCUAUCUGAGGAUAUCAUGAAGAAAACAUGAGGAUCACCCAUGUGCAGGAUAACUGCAAAUGAGAAGGCAGAUAGAUUGG [Mat - Same State 2 - Mod - D4] (puzzle: Same State 2)
[2]
  apparent KD of MS2 coat protein: 12.9 nM
[3]
  apparent KD of MS2 coat protein: 17 nM
[4]
  apparent KD of MS2 coat protein: 24.6 nM

## AACUAACAUGAGGAUCACCCAUGUUGCAGCGGUUGAGGAUAUGUGGGUGAAAAUAGCAUGGCAGAAGGCGAGUGUA [SameState1 Malc#25] (Eterna round: R96, puzzle: Same State 1)
Input ligand: FMN 200 uM
  apparent KD of MS2 coat protein: 407 nM
[1]
  apparent KD of MS2 coat protein: 95.9 nM
Input ligand: none
  apparent KD of MS2 coat protein: 208 nM

## AGCCGAGACUGAGGAUAUUUGAAUCUACAUGAGGAUCACCCAUGUAGCAACACGUGGUAGUGAUCGAAGAAGGCAGCUCGGCGC [MOD of Omei's SS(NG)2 Cv2] (Eterna round: R96, puzzle: Same State NG 2)
Input ligand: FMN 200 uM
  apparent KD of MS2 coat protein: 22.6 nM
[1]
  apparent KD of MS2 coat protein: 45.7 nM
Input ligand: none
  apparent KD of MS2 coat protein: 57 nM

## UCAAGCGAAAGGCUCGUCUUAUGCAAGAAACAUGAGGAUCACCCAUGUGAGGGACGAUUGAGUUAGAUGGAAUGGAA [JR_SHM208A_Sub031] (puzzle: Sensor for hsa-mir-208a)
[2]
  apparent KD of MS2 coat protein: 24.7 nM
[3]
  apparent KD of MS2 coat protein: 66.6 nM
[4]
  apparent KD of MS2 coat protein: 25 nM

## AUUAAACAUGAGGAUCACCCAUGUCAACAAAGUCGAGGAUAUGGGCAAAUAAAAUAAUAACCAGAAGGCGAAUAAU [salish99_ss1_r3_065] (puzzle: Same State 1)
[2]
  apparent KD of MS2 coat protein: 37.8 nM
[3]
  apparent KD of MS2 coat protein: 353 nM
[4]
  apparent KD of MS2 coat protein: 295 nM

## CGAGCCGGCACUGAGGAUAUUCAUAUUUAAACAUGAGGAUCACCCAUGUAGGCCAGAAGGCCUUGGGAGAAGGCAGGUCGGCUCC [salish99_ss2_r3_080] (puzzle: Same State 2)
[2]
  apparent KD of MS2 coat protein: 22.6 nM
[3]
  apparent KD of MS2 coat protein: 279 nM
[4]
  apparent KD of MS2 coat protein: 480 nM

## ACGCCCUCAGUAGGAUAUGGGAAAGGAAGUGUACCAGAAGGACUGGUUGAACAUGAGGAUCACCCAUGUUCAACGACAGGGCAA [PowerStrip SSNG 1.20] (Eterna round: R96, puzzle: Same State NG 1)
Input ligand: FMN 200 uM
  apparent KD of MS2 coat protein: 18.6 nM
[1]
  apparent KD of MS2 coat protein: 13.9 nM
Input ligand: none
  apparent KD of MS2 coat protein: 18.6 nM

## UACAAUCUAUCUGAGGAUAUCAUGUAUUAAACAUGAGGAUCACCCAUGUGCAGGAAAACUGCAUAUGAGAAGGCAGAUAGAUUGU [salish99_ss2_r3_064] (puzzle: Same State 2)
[2]
  apparent KD of MS2 coat protein: 428 nM
[3]
  apparent KD of MS2 coat protein: 41.9 nM
[4]
  apparent KD of MS2 coat protein: 168 nM

## UUCUCCUUUUUUUACAUGAGGAUCACCCAUGUUUUUCUUACGUAGGAUAUCGUUGAGUGUUUGUACGAGAAGGACGUAGUAAGU [JR_SSND3_Sub059] (Eterna round: R96, puzzle: Same State NG 3)
Input ligand: FMN 200 uM
  apparent KD of MS2 coat protein: 37.9 nM
[1]
  apparent KD of MS2 coat protein: 50.5 nM
Input ligand: none
  apparent KD of MS2 coat protein: 67.9 nM

## UGGAUCUAGGCUUGCCUGGGUCCUUGUUGACAUGAGGAUCACCCAUGUGUUUUUUUUUUGCUUUUUGUUUGUCAACA [JL A Humble Attempt mod 1] (puzzle: Sensor for hsa-mir-208a)
[2]
  apparent KD of MS2 coat protein: 20.8 nM
[3]
  apparent KD of MS2 coat protein: 13.6 nM
[4]
  apparent KD of MS2 coat protein: 26.1 nM

## CAGCGCUGUCGAGAGGAUAUGCGGUGAUGGACAUGAGGAUCACCCAUGUUAGCGACAGCAUCACGGCAGAAGGCUCUACCGCUGG [Soteed Omei mod 42] (puzzle: Same State 2)
[2]
  apparent KD of MS2 coat protein: 12.6 nM
[3]
  apparent KD of MS2 coat protein: 9.78 nM
[4]
  apparent KD of MS2 coat protein: 9.61 nM

## AUUAUGAAUGCAGGAUAUGAUUAACAUGAGGAUCACCCAUGUGGUGUUGUGAGUAAGGAGAGUGAUCAGAAGGGCAUUUUUUUU [JMF's solution 25] (Eterna round: R96, puzzle: Same State NG 2)
[1]
  apparent KD of MS2 coat protein: 465 nM

## GGAAUAUUUACAGGAUAUGAUUUGUUAAGUCGAUCAGAAGGGUGGAUGUCUUACACGGUUUGUUACAUGAGGAUCACCCAUGUC [SameState NG1 #14] (Eterna round: R96, puzzle: Same State NG 1)
Input ligand: FMN 200 uM
  apparent KD of MS2 coat protein: 73.3 nM
[1]
  apparent KD of MS2 coat protein: 74 nM
Input ligand: none
  apparent KD of MS2 coat protein: 176 nM

## GUACAAAUCAUAGGAUAUGGGCGGGAAUGCCGUCCAGAAGGAUGAACAUGAGGAUCACCCAUGUCCGGCCACAAAUACGCGGCC [Bientela] (Eterna round: R96, puzzle: Same State NG 1)
Input ligand: FMN 200 uM
  apparent KD of MS2 coat protein: 72.3 nM
[1]
  apparent KD of MS2 coat protein: 104 nM
Input ligand: none
  apparent KD of MS2 coat protein: 161 nM

## UUUAGUUGCGGGCAGGAUAUGUAUUAAAAUACAUGAGGAUCACCCAUGUGAGACCAUAAAGGUCUACAGAAGGGCCAAUCGCGAC [Laonerce - 19] (puzzle: Same State 2)
[2]
  apparent KD of MS2 coat protein: 14.9 nM
[3]
  apparent KD of MS2 coat protein: 89 nM
[4]
  apparent KD of MS2 coat protein: 88.1 nM

## UUGAAGAAUUAAGGAUAUUGAGUACAUAUGUUUAACAUGAGGAUCACCCAUGUGGGUUGCGGUAUCGAGAAGGUAAAUUACUAG [JL SSNG2 1.45] (Eterna round: R96, puzzle: Same State NG 2)
Input ligand: FMN 200 uM
  apparent KD of MS2 coat protein: 91.2 nM
[1]
  apparent KD of MS2 coat protein: 76.1 nM
Input ligand: none
  apparent KD of MS2 coat protein: 155 nM

## UUGAUUAGAAAUUAACAUGAGGAUCACCCAUGUAUUGGAUCAGAGGAUAUGCAUGUUUGAUAGUAGCAGAAGGCUGAUGGUGGA [JR_SSNG3_Sub027] (Eterna round: R96, puzzle: Same State NG 3)
Input ligand: FMN 200 uM
  apparent KD of MS2 coat protein: 68.3 nM
[1]
  apparent KD of MS2 coat protein: 44.2 nM
Input ligand: none
  apparent KD of MS2 coat protein: 45.8 nM

## CGGCGCUGUCGAGAGGAUAUGCGGUGAUGGACAUGAGGAUCACCCAUGUUAGCGAUAGCAUCACGGUAGAAGGCUCUACGGCUGC [Soteed Omei mod 19] (puzzle: Same State 2)
[3]
  apparent KD of MS2 coat protein: 9.83 nM

## GCGCAGCUGGGUGAGGAUAUCGGUGGUAAAACAUGAGGAUCACCCAUGUCCGGAGCUCGGACUUCCGAGAAGGCACCCGGCUGCA [Erisais] (puzzle: Same State 2)
[3]
  apparent KD of MS2 coat protein: 27.2 nM

## CCGCGCUGUCGAGAGGAUAUGCGGUGAUGGACAUGAGGAUCACCCAUGUUAGCGAUAGCAUUACUGUAGAAGGCUCUACAGCGGC [JL-ss2-3.10 ViennaUCT mod] (puzzle: Same State 2)
[2]
  apparent KD of MS2 coat protein: 12.9 nM
[3]
  apparent KD of MS2 coat protein: 18.3 nM
[4]
  apparent KD of MS2 coat protein: 21.3 nM

## CGUUCACAUGAGGAUCACCCAUGUCAGAUUUGGUCAGGAUAUGGUCGGCUUCCGCUAUUGCCAGAAGGGACUGUUG [JR_SS001_Sub705] (Eterna round: R96, puzzle: Same State 1)
Input ligand: FMN 200 uM
  apparent KD of MS2 coat protein: 24.3 nM
[1]
  apparent KD of MS2 coat protein: 28.8 nM
Input ligand: none
  apparent KD of MS2 coat protein: 35.2 nM
